From publication PMC4488664, “An Inactive Geminin Mutant That Binds Cdt1” (Genes, 2015)
Residue numbers refer to the chain shown, from its start. One block for each binder: values may come before it.

Key:
[1] = target: mouse Cdt1^172-368 (mouse) (UniProt Q8R4E9); assay: ITC; MicroCal ITC200, 18 °C; 20 mM Na-HEPES pH 7.5, 300 mM NaCl, 7 mM β-mercaptoethanol; 17 injections of Geminin (WT 0.432 mM, AWA 0.297 mM) into 200 µL Cdt1 (0.044 mM)
mouse Cdt1^172-368 [2] = target: T1, mouse Cdt1^172-368 (mouse, UniProt Q8R4E9 172-368); assay: ITC
T1 chain: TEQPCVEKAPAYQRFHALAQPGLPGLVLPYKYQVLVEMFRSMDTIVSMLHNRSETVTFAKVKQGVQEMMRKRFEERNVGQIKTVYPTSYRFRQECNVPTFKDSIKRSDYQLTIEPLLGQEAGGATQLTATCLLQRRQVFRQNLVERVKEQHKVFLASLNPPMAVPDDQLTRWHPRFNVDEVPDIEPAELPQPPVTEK

mouse Cdt1^172-368 [3] = target: T2, mouse Cdt1^172-368 (mouse, UniProt Q8R4E9 172-368); assay: ITC; MicroCal ITC200, 18 °C; 20 mM Na-HEPES pH 7.5, 300 mM NaCl, 7 mM β-mercaptoethanol; 17 injections of Geminin (WT 0.432 mM, AWA 0.297 mM) into 200 µL Cdt1 (0.044 mM); details: both partners purified
T2 construct: Cdt1, mouse, residues 172-368; Inserted between the NdeI and KpnI sites of pET Duet 1; source: E. coli BL21, purified, dialyzed
T2 sequence (looked up): T1 chain

Kd [1]: 250 nM | Ka (mouse Cdt1^172-368 [2]): 4e+06 M⁻¹
B1: mouse Geminin^79-157 AWA (domain or fragment)
chain: TQEAFDLISKENPSSQAWAEVAEQRRKALYEALKENEKLHKEIEQKDSEIARLRKENKDLAEVAEHVQYMAEVIERLSN

Kd (mouse Cdt1^172-368 [3]): 290 nM | Ka (mouse Cdt1^172-368 [2]): 3.5e+06 M⁻¹
B2: mouse Geminin^79-157 wild type (domain or fragment, UniProt O88513 79-157, looked up)
chain: B1 chain with A17Y, A19K
notes: Geminin, mouse, residues 79-157 (methods); Limits differ between methods (79-157) and legend (72-157); also called Geminin^WT; source: E. coli BL21, purified over nickel-NTA agarose, dialyzed
